In patent publication US20060263802A1 (CRUCELL HOLLAND B V, published 2006):

Key:
Assay in all cases: PEPSCAN ELISA, looped peptide, 10 ug/ml
[1] = target: looped/cyclic peptide … (rabies virus strain ERA)
[2] = target: looped/cyclic peptide … (rabies virus strain ERA); remark: listed apart in the source
[3] = target: looped/cyclic peptide … (rabies virus strain ERA); remark: listed apart in the source
[4] = target: looped/cyclic peptide … (rabies virus strain ERA); remark: listed apart in the source
[5] = target: looped/cyclic peptide … (rabies virus strain ERA); remark: listed apart in the source
[6] = target: looped/cyclic peptide … (rabies virus strain ERA); remark: listed apart in the source
[7] = target: looped/cyclic peptide … (rabies virus strain ERA); remark: listed apart in the source
[8] = target: looped/cyclic peptide … (rabies virus strain ERA); remark: listed apart in the source
[9] = target: looped/cyclic peptide … (rabies virus strain ERA); remark: listed apart in the source
[10] = target: looped/cyclic peptide … (rabies virus strain ERA); remark: listed apart in the source
[11] = target: looped/cyclic peptide … (rabies virus strain ERA); remark: listed apart in the source
[12] = target: looped/cyclic peptide … (rabies virus strain ERA); remark: listed apart in the source
[13] = target: looped/cyclic peptide … (rabies virus strain ERA); remark: listed apart in the source
[14] = target: looped/cyclic peptide … (rabies virus strain ERA); remark: listed apart in the source
[15] = target: looped/cyclic peptide … (rabies virus strain ERA); remark: listed apart in the source
[16] = target: looped/cyclic peptide … (rabies virus strain ERA); remark: listed apart in the source
[17] = target: looped/cyclic peptide … (rabies virus strain ERA); remark: listed apart in the source
[18] = target: looped/cyclic peptide … (rabies virus strain ERA); remark: listed apart in the source
[19] = target: looped/cyclic peptide … (rabies virus strain ERA); remark: listed apart in the source
[20] = target: looped/cyclic peptide … (rabies virus strain ERA); remark: listed apart in the source
[21] = target: looped/cyclic peptide … (rabies virus strain ERA); remark: listed apart in the source
[22] = target: looped/cyclic peptide … (rabies virus strain ERA); remark: listed apart in the source
[23] = target: looped/cyclic peptide … (rabies virus strain ERA); remark: listed apart in the source
[24] = target: looped/cyclic peptide … (rabies virus strain ERA); remark: listed apart in the source
[25] = target: looped/cyclic peptide … (rabies virus strain ERA); remark: listed apart in the source
[26] = target: looped/cyclic peptide … (rabies virus strain ERA); remark: listed apart in the source
[27] = target: looped/cyclic peptide … (rabies virus strain ERA); remark: listed apart in the source
[28] = target: looped/cyclic peptide … (rabies virus strain ERA); remark: listed apart in the source
[29] = target: looped/cyclic peptide … (rabies virus strain ERA); remark: listed apart in the source
[30] = target: looped/cyclic peptide … (rabies virus strain ERA); remark: listed apart in the source
[31] = target: looped/cyclic peptide … (rabies virus strain ERA); remark: listed apart in the source
[32] = target: looped/cyclic peptide … (rabies virus strain ERA); remark: listed apart in the source
[33] = target: looped/cyclic peptide … (rabies virus strain ERA); remark: listed apart in the source
[34] = target: looped/cyclic peptide … (rabies virus strain ERA); remark: listed apart in the source
[35] = target: looped/cyclic peptide … (rabies virus strain ERA); remark: listed apart in the source
[36] = target: looped/cyclic peptide … (rabies virus strain ERA); remark: listed apart in the source
[37] = target: looped/cyclic peptide … (rabies virus strain ERA); remark: listed apart in the source
[38] = target: looped/cyclic peptide … (rabies virus strain ERA); remark: listed apart in the source
[39] = target: looped/cyclic peptide … (rabies virus strain ERA); remark: listed apart in the source
[40] = target: looped/cyclic peptide … (rabies virus strain ERA); remark: listed apart in the source
[41] = target: looped/cyclic peptide … (rabies virus strain ERA); remark: listed apart in the source
[42] = target: looped/cyclic peptide … (rabies virus strain ERA); remark: listed apart in the source
[43] = target: looped/cyclic peptide … (rabies virus strain ERA); remark: listed apart in the source
[44] = target: looped/cyclic peptide … (rabies virus strain ERA); remark: listed apart in the source
[45] = target: looped/cyclic peptide … (rabies virus strain ERA); remark: listed apart in the source
[46] = target: looped/cyclic peptide … (rabies virus strain ERA); remark: listed apart in the source
[47] = target: looped/cyclic peptide … (rabies virus strain ERA); remark: listed apart in the source
[48] = target: looped/cyclic peptide … (rabies virus strain ERA); remark: listed apart in the source
[49] = target: looped/cyclic peptide … (rabies virus strain ERA); remark: listed apart in the source
[50] = target: looped/cyclic peptide … (rabies virus strain ERA); remark: listed apart in the source
[51] = target: looped/cyclic peptide … (rabies virus strain ERA); remark: listed apart in the source
[52] = target: looped/cyclic peptide … (rabies virus strain ERA); remark: listed apart in the source
[53] = target: looped/cyclic peptide … (rabies virus strain ERA); remark: listed apart in the source
[54] = target: looped/cyclic peptide … (rabies virus strain ERA); remark: listed apart in the source
[55] = target: looped/cyclic peptide … (rabies virus strain ERA); remark: listed apart in the source
[56] = target: looped/cyclic peptide … (rabies virus strain ERA); remark: listed apart in the source
[57] = target: looped/cyclic peptide … (rabies virus strain ERA); remark: listed apart in the source
[58] = target: looped/cyclic peptide … (rabies virus strain ERA); remark: listed apart in the source
[59] = target: looped/cyclic peptide … (rabies virus strain ERA); remark: listed apart in the source
[60] = target: looped/cyclic peptide … (rabies virus strain ERA); remark: listed apart in the source
[61] = target: looped/cyclic peptide … (rabies virus strain ERA); remark: listed apart in the source

B1: human monoclonal antibody CRJB (antibody, V domains shown)
VH: QITLKETGPTLVKPTQTLTLTCTFSGFSLSTSGVGVGWIRQPPGKALEWVTLIYWDDDKRYSPSLENRVTIRKDTSKNQVALTMTNMDPLDTGTYYCAHRQHISSFPWFDSWGQGTLVTVSS
VL: SYVLTQPPSVSVAPGKTARINCGGNNIEYRSVHWYQQKSGQAPVAVIYDNSDRPSGIPERFSGSKSGNTATLTISRVEAGDEADYYCQVWDISSDVVFGGGTKLTVLG
OD [1]: 110 OD | OD [2]: 104 OD | OD [3]: 100 OD | OD [4]: 99 OD | OD [5]: 71 OD | OD [6]: 102 OD | OD [7]: 94 OD | OD [8]: 82 OD | OD [9]: 83 OD | OD [10]: 42 OD | OD [11]: 90 OD | OD [12]: 76 OD | OD [13]: 105 OD | OD [14]: 79 OD | OD [15]: 97 OD | OD [16]: 96 OD | OD [17]: 94 OD | OD [18]: 104 OD | OD [19]: 93 OD | OD [20]: 104 OD | OD [21]: 92 OD | OD [22]: 76 OD | OD [23]: 106 OD | OD [24]: 87 OD | OD [25]: 78 OD | OD [26]: 88 OD | OD [27]: 92 OD | OD [28]: 93 OD | OD [29]: 91 OD | OD [30]: 96 OD | OD [31]: 101 OD | OD [32]: 106 OD | OD [33]: 111 OD | OD [34]: 85 OD | OD [35]: 108 OD | OD [36]: 76 OD | OD [37]: 88 OD | OD [38]: 107 OD | OD [39]: 92 OD | OD [40]: 90 OD | OD [41]: 101 OD | OD [42]: 129 OD | OD [43]: 93 OD | OD [44]: 104 OD | OD [45]: 110 OD | OD [46]: 100 OD | OD [47]: 105 OD | OD [48]: 80 OD | OD [49]: 147 OD | OD [50]: 106 OD | OD [51]: 97 OD | OD [52]: 85 OD | OD [53]: 80 OD | OD [54]: 98 OD | OD [55]: 85 OD | OD [56]: 101 OD | OD [57]: 93 OD | OD [58]: 86 OD | OD [59]: 72 OD | OD [60]: 85 OD | OD [61]: 79 OD
